Measured values taken from article PMC10953402, “Structure and Function of the α‐Hydroxylation Bimodule of the Mupirocin Polyketide Synthase” (Angewandte Chemie (International Ed. in English), 2023).

Experiments:
[1] = target: the molecule itself; assay: not stated; purification of recombinant Fre (Figure S6); how the dimer was shown is not told
[2] = target: the molecule itself; assay: SEC; purified MupA alone, at higher concentrations (>2 mg/ml)
[3] = target: the molecule itself; assay: SEC; purified MupA alone, at the lower concentrations (not above 2 mg/ml)

Row | Protein | stoichiometry N [1] | stoichiometry N [2] | stoichiometry N [3]
1 | Fre (enzyme, E. coli, UniProt P0AEN1 1-233, looked up, NAD(P)H:flavin oxidoreductase Fre of E. coli (GenBank M61182); Purified as the expected dimer; also called oxidoreductase Fre; E. coli Fre; source: E. coli, overexpressed, purified) MTTLSCKVTSVEAITDTVYRVRIVPDAAFSFRAGQYLMVVMDERDKRPFSMASTPDEKGFIELHIGASEINLYAKAVMDRILKDHQIVVDIPHGEAWLRDDEERPMILIAGGTGFSYARSILLTALARNPNRDITIYWGGREEQHLYDLCELEALSLKHPGLQVVPVVEQPEAGWRGRTGTVLTAVLQDHGTLAEHDIYIAGRFEMAKIARDLFCSERNAREDRLFGDAFAFI | 2 | – | –
2 | MupA (enzyme, Pseudomonas fluorescens, UniProt Q9AH80 1-369, looked up, MupA, predicted FMNH2-dependent monooxygenase of the mupirocin biosynthetic gene cluster of Pseudomonas fluorescens NCIMB 10586; Dimer by SEC, dimer of dimers above 2 mg/ml; Used unlabelled in the NMR titrations; they may stand in the Supporting Information; also called flavin-dependent monooxygenase MupA; FMO; source: cloned, over-expressed and purified to homogeneity) MSVEQLLGLGVTNAARAPRQPAFSLLFFSDVREDISASEKYEFARSLTLFGDAQGFEAVYFPERHFHEFGAIYPDSAVMAASLIPQTRHIRFRTAGISLPLHHPARVVESWSMNDVLSGGRVDLGFGSGWSRPDFLLAPHAYEDRREVMWQRIEQVRRLWAGERLSFPGPGGDPVSVVTFPRPLQTSLNVWILVAQNTESFIAAGKAGFNVFTMLYGIDLPDLAEKIGLYRQARRDAGFDPASGRVTLMLHTLVGPDSAWVRRAVEAPFKDYIRSSLVAHMKARATPDGRPLDATEQENVLQYAFERYYETGALFGTVDEVRYRVGQVLETGVDEIACLMDFGVDYAVVHQSLPYLEQLVASFQERSAQ | – | 4 | 2
